Test results taken from paper doi:10.1101/2024.02.18.580885 (bioRxiv, 2024).

Target: the molecule itself
Assay: dynamic light scattering

B1: TFIP11 N-TER (N-terminal region of Tuftelin Interacting Protein 11) (domain or fragment, human, UniProt Q9UBB9 1-350, looked up)
chain: MSLSHLYRDGEGRIDDDDDERENFEITDWDLQNEFNPNRQRHWQTKEEATYGVWAERDSDDERPSFGGKRARDYSAPVNFISAGLKKGAAEEAELEDSDDEEKPVKQDDFPKDFGPRKLKTGGNFKPSQKGFAGGTKSFMDFGSWERHTKGIGQKLLQKMGYVPGRGLGKNAQGIINPIEAKQRKGKGAVGAYGSERTTQSMQDFPVVDSEEEAEEEFQKELSQWRKDPSGSKKKPKYSYKTVEELKAKGRISKKLTAPQKELSQVKVIDMTGREQKVYYSYSQISHKHNVPDDGLPLQSQQLPQSGKEAKAPGFALPELEHNLQLLIDLTEQEIIQNDRQLQYERDMVV
**Q.** Does B1 bind?
**A.** binds
